Measurements taken from patent EP4810515A1 (Shanghai Haiju Biological Technology Co., Ltd., dated 2026).

T1: GDF15 protein (R&D, 8146-GD) (UniProt Q99988 197-308)
T1 construct: analyte of the SPR assay
T1 sequence (looked up): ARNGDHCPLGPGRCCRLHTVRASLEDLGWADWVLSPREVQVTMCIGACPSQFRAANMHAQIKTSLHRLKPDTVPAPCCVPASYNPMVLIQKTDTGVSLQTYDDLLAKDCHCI

T2: human GDF15 recombinant protein (ACRO, GD5-H5149) (human, UniProt Q99988 197-308)
T2 sequence (looked up): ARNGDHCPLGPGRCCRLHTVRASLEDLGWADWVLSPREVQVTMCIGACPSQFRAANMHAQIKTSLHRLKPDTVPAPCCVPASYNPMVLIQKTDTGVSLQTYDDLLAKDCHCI

B1: G2-H8-H1L1-hIgG1(LALAGA,-K)(gsm) (antibody, V domains shown)
VH: QITLKESGPTLVKPTQTLTLTCTFSGFSLSTYGIGVGWIRQPPGKALEWLAHIWWNDNKYYNTALKSRLTITKDTSKNQVVLTMTNMDPVDTATYYCARLAYDYVDSWGQGTLVTVSS
VL: DIVMTQTPLSLSVTPGQPASISCKSSKSLLHSEGITYLYWYLQKPGQSPQLLIYQMSNLVSGVPDRFSGSGSGTDFTLKISRVEAEDVGVYYCAQNLELPPTFGQGTKLEIKR
notes: humanized from G2-CH8-LP3; also called G2-H8-H1L1-hIgG1(gsm); G2-H8-H1L1-hIgG1 (gsm)(LALAGA,-K)
B2: G2-H8-H2L2-hIgG1(LALAGA,-K) (antibody, V domains shown)
VH: QVTLKESGPALVKPTQTLTLTCTFSGFSLSTYGIGVGWIRQPPGKGLEWLAHIWWNDNKYYNTALKSRLTISKDTSKNQVVLTMTNMDPVDTATYYCARLAYDYVDSWGQGTTLTVSS
VL: DIVMTQTPLSLSVTPGQPASISCRSSKSLLHSEGITYLYWYLQKPGQSPQLLIYQMSNLVSGVPDRFSSSGSGTDFTLKISRVEAEDVGVYYCAQNLELPPTFGQGTKLEIKR
notes: humanized from G2-CH8-LP3
B3: G2-H5-H2.2L2-hIgG1(LALAGA,-K) (antibody, V domains shown)
VH: EVQLVQSGAEVKKPGASVKVSCKASGYTFTDYNLNWVRQATGQGLEWMGDLNPYNQGIIYNQKFKGRVTLTVDKSISTAYMELSSLRSEDTAVYYCAREGRGGAWFDSWGQGTLVTVSS
VL: DIQMTQSPSSLSASVGDRVTITCKASEDIYHRLAWYQQKPGKAPKLLIYGATSLETGVPSRFSGSGSGTDYTFTISSLQPEDIATYYCQQYWSPPFTFGGGTKVEIKR
notes: humanized from G2-CH5-HP2
B4: G2-H5-H1.2L2-hIgG1(LALAGA,-K) (antibody, V domains shown)
VH: EVQLVQSGAEVKKPGASVKVSCKASGYTFTDYNLNWVRQATGQGLEWMGDLNPYNQGIIYNQKFKGRVTMTVDTSISTAYMELSSLRSEDTAVYYCAREGRGGAWFDSWGQGTLVTVSS
VL: DIQMTQSPSSLSASVGDRVTITCKASEDIYHRLAWYQQKPGKAPKLLIYGATSLETGVPSRFSGSGSGTDYTFTISSLQPEDIATYYCQQYWSPPFTFGGGTKVEIKR
notes: humanized from G2-CH5-HP2
B5: G2-H5-H1.2L1-hIgG1(LALAGA,-K) (antibody, V domains shown)
VH: EVQLVQSGAEVKKPGASVKVSCKASGYTFTDYNLNWVRQATGQGLEWMGDLNPYNQGIIYNQKFKGRVTMTVDTSISTAYMELSSLRSEDTAVYYCAREGRGGAWFDSWGQGTLVTVSS
VL: DIQMTQSPSSLSASVGDRVTITCKASEDIYHRLAWYQQKPGKAPKLLIYGATSLETGVPSRFSGSGSGTDFTFTISSLQPEDIATYYCQQYWSPPFTFGGGTKVEIKR
notes: humanized from G2-CH5-HP2
B6: G2-H5-H1.2L3-hIgG1(LALAGA,-K) (antibody, V domains shown)
VH: EVQLVQSGAEVKKPGASVKVSCKASGYTFTDYNLNWVRQATGQGLEWMGDLNPYNQGIIYNQKFKGRVTMTVDTSISTAYMELSSLRSEDTAVYYCAREGRGGAWFDSWGQGTLVTVSS
VL: DIQMTQSPSSLSASVGDRVTITCKASEDIYHRLAWYQQKPGKAPKLLISGATSLETGVPSRFSGSGSGTDYTFTISSLQPEDIATYYCQQYWSPPFTFGGGTKVEIKR
notes: humanized from G2-CH5-HP2
B7: G2-H5-H1.2L4-hIgG1(LALAGA,-K) (antibody, V domains shown)
VH: EVQLVQSGAEVKKPGASVKVSCKASGYTFTDYNLNWVRQATGQGLEWMGDLNPYNQGIIYNQKFKGRVTMTVDTSISTAYMELSSLRSEDTAVYYCAREGRGGAWFDSWGQGTLVTVSS
VL: DIQMTQSPSSLSASVGDRVTITCKASEDIYHRLAWYQQKPGKAPKLLISGATSLETGIPSRFSGSGSGTDYTFTISSLQPEDIATYYCQQYWSPPFTFGGGTKVEIKR
notes: humanized from G2-CH5-HP2
B8: G2-H5-H2.2L1-hIgG1(LALAGA, -K) (antibody, V domains shown)
VH: EVQLVQSGAEVKKPGASVKVSCKASGYTFTDYNLNWVRQATGQGLEWMGDLNPYNQGIIYNQKFKGRVTLTVDKSISTAYMELSSLRSEDTAVYYCAREGRGGAWFDSWGQGTLVTVSS
VL: DIQMTQSPSSLSASVGDRVTITCKASEDIYHRLAWYQQKPGKAPKLLIYGATSLETGVPSRFSGSGSGTDFTFTISSLQPEDIATYYCQQYWSPPFTFGGGTKVEIKR
notes: humanized from G2-CH5-HP2
B9: G2-H1-hz15-hIgG1(LALAGA, -K) (antibody, V domains shown)
VH: QVTLLESGGGLVQPGGSLRLSCSFSGFSLSTYGIGVGWIRQAPGKGLEWLAHIWWNNNKYFNTALKSRLTISKDTSKNTVYLQMNSVRAEDTAVYYCARMGYDIMDYWGQGTTVTVSS
VL: DIVMTQSPATLSTSPGERATLSCKASQDVNTAVAWYQQKPGQAPRFLIYSSSYRYTGVPARFSGSGSGTEFTFTISSLQSEDFAVYYCQQHYSTPWTFGGGTKVEIKR
notes: humanized from G2-CH1
B10: G2-H1-hz2-hIgG1(LALAGA, -K) (antibody, V domains shown)
VH: QVQLQESGPGLVKPSETLSLTCTFSGFSLSTYGIGVGWIRQPPGKGLEWIAHIWWNNNKYFNTALKSRLTISKDTSKNQVSLKLSSVTAADTAVYYCARMGYDIMDYWGQGTLVTVSS
VL: DIVMTQSPSSLSTSVGDRVTITCKASQDVNTAVAWYQQKPGKSPKFLIYSSSYRYTGVPDRFSGSGSGTDFTFTISSVQPEDFAVYYCQQHYSTPWTFGGGTKVEIKR
notes: humanized from G2-CH1
B11: G2-H1-hz8-hIgG1(LALAGA, -K) (antibody, V domains shown)
VH: QVTLQESGPGLVKPSETLSLTCSFSGFSLSTYGIGVGWIRQPPGKGLEWLAHIWWNNNKYFNTALKSRLTISKDTSKNQVSLKLSSVTAADTATYYCARMGYDIMDYWGQGTSVTVSS
VL: DIVMTQSPATLSTSPGERVTISCKASQDVNTAVAWYQQKPGQSPRFLIYSSSYRYTGVPDRFSGSGSGTDFTFTISSVQSEDFAVYYCQQHYSTPWTFGGGTKVEIKR
notes: humanized from G2-CH1
B12: G2-H1-hz13-hIgG1(LALAGA, -K) (antibody, V domains shown)
VH: QVTLLESGGGLVQPGGSLRLSCSFSGFSLSTYGIGVGWIRQAPGKGLEWLAHIWWNNNKYFNTALKSRLTISKDTSKNTVYLQMNSVRAEDTAVYYCARMGYDIMDYWGQGTTVTVSS
VL: DIQMTQSPSSLSTSVGDRVTITCKASQDVNTAVAWYQQKPGKAPKFLIYSSSYRYTGVPDRFSGSGSGTDFTFTISSLQPEDFAVYYCQQHYSTPWTFGQGTKVEIKR
notes: humanized from G2-CH1
B13: G2-H1-hz1-hIgG1(LALAGA, -K) (antibody, V domains shown)
VH: QVQLQESGPGLVKPSETLSLTCTFSGFSLSTYGIGVGWIRQPPGKGLEWIAHIWWNNNKYFNTALKSRLTISKDTSKNQVSLKLSSVTAADTAVYYCARMGYDIMDYWGQGTLVTVSS
VL: DIQMTQSPSSLSTSVGDRVTITCKASQDVNTAVAWYQQKPGKAPKFLIYSSSYRYTGVPDRFSGSGSGTDFTFTISSLQPEDFAVYYCQQHYSTPWTFGQGTKVEIKR
notes: humanized from G2-CH1
B14: G2-H1-hz4-hIgG1(LALAGA, -K) (antibody, V domains shown)
VH: QVQLQESGPGLVKPSETLSLTCTFSGFSLSTYGIGVGWIRQPPGKGLEWIAHIWWNNNKYFNTALKSRLTISKDTSKNQVSLKLSSVTAADTAVYYCARMGYDIMDYWGQGTLVTVSS
VL: DIVMTQSPATLSTSPGERVTISCKASQDVNTAVAWYQQKPGQSPRFLIYSSSYRYTGVPDRFSGSGSGTDFTFTISSVQSEDFAVYYCQQHYSTPWTFGGGTKVEIKR
notes: humanized from G2-CH1
B15: G2-H1-hz14-hIgG1(LALAGA, -K) (antibody, V domains shown)
VH: QVTLLESGGGLVQPGGSLRLSCSFSGFSLSTYGIGVGWIRQAPGKGLEWLAHIWWNNNKYFNTALKSRLTISKDTSKNTVYLQMNSVRAEDTAVYYCARMGYDIMDYWGQGTTVTVSS
VL: DIVMTQSPSSLSTSVGDRVTITCKASQDVNTAVAWYQQKPGKSPKFLIYSSSYRYTGVPDRFSGSGSGTDFTFTISSVQPEDFAVYYCQQHYSTPWTFGGGTKVEIKR
notes: humanized from G2-CH1
B16: G2-H1-hz6-hIgG1(LALAGA, -K) (antibody, V domains shown)
VH: QVTLQESGPGLVKPSETLSLTCSFSGFSLSTYGIGVGWIRQPPGKGLEWLAHIWWNNNKYFNTALKSRLTISKDTSKNQVSLKLSSVTAADTATYYCARMGYDIMDYWGQGTSVTVSS
VL: DIVMTQSPSSLSTSVGDRVTITCKASQDVNTAVAWYQQKPGKSPKFLIYSSSYRYTGVPDRFSGSGSGTDFTFTISSVQPEDFAVYYCQQHYSTPWTFGGGTKVEIKR
notes: humanized from G2-CH1

Experiments:
[1] = molecular target: T1, GDF15 protein (R&D, 8146-GD); assay: SPR Biacore T200, antibody captured by anti-hFc on CM5, GDF15 as analyte, 1:1 model
[2] = molecular target: T2, human GDF15 recombinant protein (ACRO, …); assay: cell-based or functional assay

| Binder | Kd [1] [nM] | koff [1] [s⁻¹] | kon [1] [M⁻¹ s⁻¹] | IC50, reporter gene cell strain (GFRAL/RET) [2] [nM] |
| --- | --- | --- | --- | --- |
| B1 | 0.022 | 0.00017 | 7.75e+06 | 0.069 |
| B2 | 0.0143 | 0.000127 | 8.9e+06 | 0.053 |
| B3 | 0.0178 | 0.000145 | 8.11e+06 | 0.049 |
| B4 | 0.0145 | 0.000134 | 9.19e+06 | 0.046 |
| B5 | 0.0244 | 0.000169 | 6.94e+06 | 0.036 |
| B6 | 0.0197 | 0.000185 | 9.37e+06 | 0.069 |
| B7 | 0.0241 | 0.000201 | 8.36e+06 | 0.053 |
| B8 | 0.0229 | 0.000189 | 8.26e+06 | 0.055 |
| B9 | 0.00923 | 0.000115 | 1.25e+07 | 0.077 |
| B10 | 0.0134 | 0.000192 | 1.43e+07 | 0.08 |
| B11 | 0.0178 | 0.000273 | 1.53e+07 | 0.062 |
| B12 | 0.0211 | 0.000297 | 1.41e+07 | 0.062 |
| B13 | 0.0105 | 0.000146 | 1.39e+07 | 0.063 |
| B14 | 0.00993 | 0.000183 | 1.84e+07 | 0.071 |
| B15 | 0.0107 | 0.00015 | 1.4e+07 | 0.085 |
| B16 | 0.0151 | 0.000221 | 1.46e+07 | 0.073 |
